Data from paper PMC4491177, “Co-translational capturing of nascent ribosomal proteins by their dedicated chaperones” (Nature Communications, 2015).
Ends that are not written are not given here.

Assays:
[1] = test system: Rrb1; test: Y2H interaction with Rrb1; assay type: binding, S. cerevisiae; conditions: reporter strain PJ69-4A, HIS3 and ADE2 reporters, 3 days at 30 °C
Description: For Y2H interaction assays, plasmids expressing bait proteins, fused to the Gal4 DNA-binding domain (G4BD), and prey proteins, fused to the Gal4 activation domain (G4AD), were co-transformed into reporter strain PJ69-4A. Y2H interactions were documented by spotting representative transformants in 10-fold serial dilution steps onto SC-Trp-Leu, SC-Trp-Leu-His (HIS3 reporter) and SC-Trp-Leu-Ade (ADE2 reporter) plates, which were incubated for 3 days at 30 °C. Growth on SC-Trp-Leu-His plates is indicative of a weak/moderate interaction, whereas only relatively strong interactions permit growth on SC-Trp-Leu-Ade plates.

[2] = molecular target: T1, Rpl10 (endogenous) (S. cerevisiae (endogenous in yeast …, UniProt P41805 1-221)); test: cell-based or functional assay
T1 sequence (looked up): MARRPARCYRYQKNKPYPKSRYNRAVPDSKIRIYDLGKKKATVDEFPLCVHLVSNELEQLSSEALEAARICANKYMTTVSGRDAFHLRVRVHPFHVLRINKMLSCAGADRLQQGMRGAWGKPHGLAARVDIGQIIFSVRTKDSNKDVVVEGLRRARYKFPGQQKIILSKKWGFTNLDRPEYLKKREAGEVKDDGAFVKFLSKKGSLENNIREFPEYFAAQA

[3] = test system: sqt1 mutant cells; test: in vivo ribosomal protein solubility assay; assay type: cell-based, S. cerevisiae; conditions: expressed for 20 min from copper-inducible promoter; in sqt1.E315A and sqt1.E110A/D420A mutant cells; 200,000g 1 h
Description: The sqt1 mutant cells, either containing empty vector or a centromeric plasmid expressing Sqt1 from the ADH1 promoter, were grown in a volume of 100 ml to an OD600 of ∼0.7 and expression of C-terminally 2xHA-tagged Rpl10 was induced for 20 min from the CUP1 promoter with 500 μM copper sulfate. After harvesting, cells were lysed with glass beads in a buffer containing 50 mM Tris-HCl (pH 7.5), 100 mM NaCl, 1.5 mM MgCl2, 5% glycerol and 0.1% NP-40, and cell extracts were centrifuged for 3 min at 3,000 r.p.m. Then, total cell extracts, 10 A260 units in a final volume of 500 μl, were subjected to centrifugation at 200,000g for 1 h. Pellets were resuspended in 100 μl lysis buffer and equal amounts of the total extracts (T), soluble extracts (S) and pellet fractions (P) were analysed by SDS–polyacrylamide gel electrophoresis and western blotting using an anti-HA antibody.
Supplementary Figure 9 Sqt1 is required for the soluble expression of Rpl10 in yeast.
Expression of C-terminally 2xHA-tagged Rpl10 (Rpl10-2xHA) was induced for 20 min from the CUP1 promoter with 500 µM copper sulfate in sqt1.E315A or sqt1.E110A/D420A mutant cells containing empty vector (vector) or a plasmid expressing Sqt1 from the constitutive ADH1 promoter (SQT1). […]

[4] = molecular target: Rpl3 (endogenous) (S. cerevisiae (endogenous in yeast …, UniProt P14126 1-387)); test: cell-based or functional assay
Rpl3 (endogenous) (S. cerevisiae, sequence (P14126 whole entry): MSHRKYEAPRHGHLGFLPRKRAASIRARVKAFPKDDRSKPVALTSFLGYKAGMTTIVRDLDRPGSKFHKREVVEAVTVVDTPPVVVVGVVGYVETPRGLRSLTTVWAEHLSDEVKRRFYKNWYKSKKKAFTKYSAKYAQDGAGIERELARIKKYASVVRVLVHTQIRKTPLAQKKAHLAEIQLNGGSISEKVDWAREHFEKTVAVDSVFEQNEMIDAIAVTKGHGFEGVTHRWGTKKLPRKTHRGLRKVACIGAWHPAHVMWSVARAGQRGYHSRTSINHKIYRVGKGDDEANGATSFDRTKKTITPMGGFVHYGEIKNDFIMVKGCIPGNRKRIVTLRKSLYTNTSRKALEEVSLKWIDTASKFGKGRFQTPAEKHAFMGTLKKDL

[5] = test system: RPL3 mRNA; test: co-translational capturing by qRT-PCR, RPL3 mRNA; assay type: binding, S. cerevisiae; conditions: NTAP-Rrb1 purification, cycloheximide-treated cells; one representative experiment, qPCR triplicates
Description: Cells expressing Sqt1-TAP, NTAP-Rrb1, Syo1-FTpA and Yar1-TAP were grown at 30 °C in 400 ml YPD medium to an optical density (OD600) of 0.8, then cycloheximide was added to a final concentration of 0.2 mg ml^−1 and the flasks were kept, with intermittent vigorous shaking, on ice for 5 min. Cells were harvested by centrifugation for 5 min at 4 °C at 4,000 r.p.m., washed once with 20 ml of ice-cold lysis buffer (100 mM NaCl, 50 mM Tris-HCl (pH 7.5), 1.5 mM MgCl2, 0.1% NP-40 and 5% glycerol) containing 1 mM PMSF and 0.2 mg ml^−1 cycloheximide (lysis buffer-PC) and resuspended in 2 ml of lysis buffer-PC. Equal volumes of the resuspended cells were transferred into two 2.2 ml Eppendorf tubes, briefly centrifuged and resuspended in 600 μl of ice-cold lysis buffer-PC. To prevent RNA degradation, 4 μl of RiboLock (40 U μl^−1; Fermentas) was added. Then glass beads, corresponding to 1/3 of the lysis buffer volume, were added and the tubes were vigorously vortexed for 10 × 30 s with 30-s intervals on ice. Cell extracts were transferred to a new tube and, to maximize the yield, 400 μl of ice-cold lysis buffer-PC was used to rinse the glass beads. […]
For RNA isolation from the TEV eluate aliquot (∼450 μl), the TEV eluate was adjusted to 10 mM EDTA (pH 8.0) and 0.5% SDS. […] RNA concentrations (A260) were determined using a NanoDrop 1000 spectrophotometer (Thermo Scientific). […]

[6] = soluble expression in E. coli; assay type: physicochemical; conditions: data not shown for Rpl10

Molecule: amino acids 1–15 of Rpl3: amino acids 1–15 of Rpl3, Y2H bait fused to G4BD (MSHRKYEAPRHGHLG; also: fused to Gal4 DNA-binding domain; UniProt P14126 1-15, looked up, fragment)
- Y2H interaction with Rrb1 [1]: sufficient to yield a robust Y2H interaction with full-length Rrb1

B1: Sqt1-TAP (natural protein, S. cerevisiae, UniProt P35184 1-431, looked up)
chain: MEPQEEFITTEEVEQEIVPTVEVEQDVPVDIEGENDDDDEMMNDDEEALEVDMSNNSLTYFDKHTDSVFAIGHHPNLPLVCTGGGDNLAHLWTSHSQPPKFAGTLTGYGESVISCSFTSEGGFLVTADMSGKVLVHMGQKGGAQWKLASQMQEVEEIVWLKTHPTIARTFAFGATDGSVWCYQINEQDGSLEQLMSGFVHQQDCSMGEFINTDKGENTLELVTCSLDSTIVAWNCFTGQQLFKITQAEIKGLEAPWISLSLAPETLTKGNSGVVACGSNNGLLAVINCNNGGAILHLSTVIELKPEQDELDASIESISWSSKFSLMAIGLVCGEILLYDTSAWRVRHKFVLEDSVTKLMFDNDDLFASCINGKVYQFNARTGQEKFVCVGHNMGVLDFILLHPVANTGTEQKRKVITAGDEGVSLVFEVPN
- enrichment of the RPL10 mRNA in the Sqt1-TAP purification (IgG-sepharose pull-down from cycloheximide-treated cells, TEV eluate, real-time qRT–PCR) [2]: ~25 fold

B2: Rpl10-2xHA: C-terminally 2xHA-tagged Rpl10 (protein)
chain: MARRPARCYRYQKNKPYPKSRYNRAVPDSKIRIYDLGKKKATVDEFPLCVHLVSNELEQLSSEALEAARICANKYMTTVSGRDAFHLRVRVHPFHVLRINKMLSCAGADRLQQGMRGAWGKPHGLAARVDIGQIIFSVRTKDSNKDVVVEGLRRARYKFPGQQKIILSKKWGFTNLDRPEYLKKREAGEVKDDGAFVKFLSKKGSLENNIREFPEYFAAQA
modifications: left off: 2xHA, C-terminal, kept
notes: C-terminally 2xHA-tagged Rpl10
- solubility of newly synthesized Rpl10-2xHA [3]: strongly reduced

B3: NTAP-Rrb1 (natural protein, S. cerevisiae, UniProt Q04225 1-511, looked up)
chain: MSKRSIEVNEEQDRVVSAKTESHSVPAIPASEEQDAPKNDLEEQLSDEFDSDGEIIEIDGDDEINDEDDLRKKQEEAETLVQKDQSEGNKEKIQELYLPHMSRPLGPDEVLEADPTVYEMLHNVNMPWPCLTLDVIPDTLGSERRNYPQSILLTTATQSSRKKENELMVLALSNLAKTLLKDDNEGEDDEEDDEDDVDPVIENENIPLRDTTNRLKVSPFAISNQEVLTATMSENGDVYIYNLAPQSKAFSTPGYQIPKSAKRPIHTVKNHGNVEGYGLDWSPLIKTGALLSGDCSGQIYFTQRHTSRWVTDKQPFTVSNNKSIEDIQWSRTESTVFATAGCDGYIRIWDTRSKKHKPAISVKASNTDVNVISWSDKIGYLLASGDDNGTWGVWDLRQFTPSNADAVQPVAQYDFHKGAITSIAFNPLDESIVAVGSEDNTVTLWDLSVEADDEEIKQQAAETKELQEIPPQLLFVHWQKEVKDVKWHKQIPGCLVSTGTDGLNVWKTISV
- enrichment of the RPL3 mRNA in the NTAP-Rrb1 purification (IgG-sepharose pull-down from cycloheximide-treated cells, TEV eluate, real-time qRT–PCR) [4]: ~100 fold

B4: Rrb1: dedicated chaperone of Rpl3; purified as NTAP-Rrb1 in b27 (protein, UniProt Q04225 1-511, looked up)
Ribosome assembly protein RRB1: MSKRSIEVNEEQDRVVSAKTESHSVPAIPASEEQDAPKNDLEEQLSDEFDSDGEIIEIDGDDEINDEDDLRKKQEEAETLVQKDQSEGNKEKIQELYLPHMSRPLGPDEVLEADPTVYEMLHNVNMPWPCLTLDVIPDTLGSERRNYPQSILLTTATQSSRKKENELMVLALSNLAKTLLKDDNEGEDDEEDDEDDVDPVIENENIPLRDTTNRLKVSPFAISNQEVLTATMSENGDVYIYNLAPQSKAFSTPGYQIPKSAKRPIHTVKNHGNVEGYGLDWSPLIKTGALLSGDCSGQIYFTQRHTSRWVTDKQPFTVSNNKSIEDIQWSRTESTVFATAGCDGYIRIWDTRSKKHKPAISVKASNTDVNVISWSDKIGYLLASGDDNGTWGVWDLRQFTPSNADAVQPVAQYDFHKGAITSIAFNPLDESIVAVGSEDNTVTLWDLSVEADDEEIKQQAAETKELQEIPPQLLFVHWQKEVKDVKWHKQIPGCLVSTGTDGLNVWKTISV
- enrichment of the specific ribosomal protein mRNA (RPL3) [5]: roughly 100 -fold
- soluble expression in E. coli [6]: inefficient expression of soluble Rrb1
